Laboratory results taken from the supplement of paper PMC9170038.

Tested on: MS2 coat protein
Assay: apparent KD of MS2 coat protein; designed switch direction (-1 OFF switch, 1 ON switch): -1; higher = weaker reporter binding
Summary of the method: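 Stalled E. coli RNA polymerase transcribed designed RNA switches on Illumina chips, which were then titrated with SNAP-549-labelled MS2 coat protein, doubling from 0.7 or 1.5 nM to 3 µM. Steps lasted from 0.8–1.5 h at the lowest concentration to 10–20 min at the highest. The apparent KD is each design's median over clusters of curve-fitted normalised fluorescence.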

[1] = input ligand: microRNA oligo, concentration not stated
[2] = Eterna round: R95, input ligand: FMN 200 uM
[3] = Eterna round: R95, input ligand: microRNA oligo, concentration not stated
[4] = Eterna round: R95, input ligand: none

Row | Sequence | apparent KD of MS2 coat protein (input ligand: FMN 200 uM) [nM] | apparent KD of MS2 coat protein [1] [nM] | apparent KD of MS2 coat protein (input ligand: none) [nM] | apparent KD of MS2 coat protein [2] [nM] | apparent KD of MS2 coat protein [3] [nM] | apparent KD of MS2 coat protein [4] [nM]
1 | ACAUGAGGAUCACCCAUGUUAGGUUGGUUUUCUCCGGCUGUUGAGGAUAUAGUCCGGUAUCCGCGCUAGAAGGUGAGGGUUGGC [Aenatbe mod 9] (Eterna round: R96, puzzle: Exclusion NG 3) | 61.9 | 60 | 64.9 | – | – | –
2 | ACAUGAGGAUCACCCAUGUUUGGCUGGUUUUCUCCGGCUGUCGAGGAUAUAGUACGGUAUCCGCGCUAGAAGGUGAGGGUCGGC [Aenatbe mod 2] (Eterna round: R96, puzzle: Exclusion NG 3) | 17.1 | 12.2 | 19 | – | – | –
3 | ACAUGAGGAUCACCCAUGUUUUUUGGGUACUUUUGUUUCUGCAAGGAUAUGCAUUAUUUAUAUACGCAGAAGGUGCAUUACUUC [JR_ExcNG3_Sub061] (Eterna round: R96, puzzle: Exclusion NG 3) | – | 501 | – | – | – | –
4 | ACAUGCCGCGCAGGAUAUGGGACACAUGAGGAUCACCCAUGUGGUUUCAUGUCUAACCAAGCGUCCCAGAAGGGCGUGAACAUG [Ex NG2 #29] (Eterna round: R96, puzzle: Exclusion NG 2) | 30.9 | 16.1 | 25.2 | – | – | –
5 | ACAUGGAAGCAGGAUAUGCUUGUAUAAUUGAAAGCAGAAGGGCUAACAUGAGGAUCACCCAUGUAAGAGGUCUA [JR_E6_Sub060] (puzzle: Exclusion 6) | – | – | – | 91 | 21 | 24.7
6 | ACAUGGAAGCAGGAUAUGCUUGUAUAAUUGUUUGCAGAAGGGCUAACAUGAGGAUCACCCAUGUAAGAGGUCUA [JR_E6_Sub061] (puzzle: Exclusion 6) | – | – | – | – | 15.9 | –
7 | ACAUGUAAUGCAGGAUAUGGGACACAUGAGGAUCACCCAUGUGACCAGAGGUAAUGCUAAGAGUCUCAGAAGGGUAUGUACAUG [Ex NG2 #49] (Eterna round: R96, puzzle: Exclusion NG 2) | 22.5 | 14.5 | 19 | – | – | –
8 | ACAUGUCAUCGAGGAUAUUGCACACAUGAGGAUCACCCAUGUAUACGGUUGCUCUUGCGUGAGUUCGAGAAGGCGAUGUACAUU [Ex NG2 #86] (Eterna round: R96, puzzle: Exclusion NG 2) | 109 | 198 | 313 | – | – | –
9 | ACAUGUCAUUGAGGAUAUUGCAAACAUGAGGAUCACCCAUGUAUACGGAUGCUCUUACGUGGGUUCGAGAAGGCGAUGUACAUU [Ex NG2 #92] (Eterna round: R96, puzzle: Exclusion NG 2) | 819 | 345 | 429 | – | – | –
10 | ACAUGUCAUUGAGGAUAUUGCACACAUGAGGAUCACCCAUGUAUACGGAUGCUCUUACGUGAGUUCGAGAAGGCGAUGUACAUU [Ex NG2 #89] (Eterna round: R96, puzzle: Exclusion NG 2) | 290 | 121 | 160 | – | – | –
11 | ACAUGUUGCGCAGGAUAUGGGACACAUGAGGAUCACCCAUGUGGUUACAUGUCUUACCAAGCGUCCCAGAAGGGCGUGAACAUG [Ex NG2 #31] (Eterna round: R96, puzzle: Exclusion NG 2) | 28.6 | 18.4 | 22.1 | – | – | –
12 | ACAUUUGUAGAGGAUAUCAAGCCCAGGCUCCGUUGAGAAGGUUACACAUGAGGAUCACCCAUGUCCUCCUUACC [Eternabot (L1) Solution 4] (Eterna round: R97, puzzle: Exclusion 6) | 168 | – | 162 | – | – | –
13 | ACCAUGUCAGGAUAUGCCCGUGUUCGAUCCGAGAAACACGAGCAGAAGGGACAUGAGGAUCACCCAUGUCCAAG [Eternabot (Original) Solution 1] (Eterna round: R97, puzzle: Exclusion 4) | 45.2 | – | 16.2 | – | – | –
14 | ACCCAACAUGAGGAUCACCCAUGUCAGGAUAUCCAUCACUAUCACGAAAGGAUAGGAUGGAGAAGGGACAGAGG [ChP 04-04-2015 #3] (puzzle: Exclusion 1) | – | – | – | 325 | 99.8 | 158
15 | ACCUCACAUGAGGAUCACCCAUGUCAGGAUAUGUACCCGAUCAAGUCAGAGAUCGGAAGCAGAAGGGACUGCGG [Bemabebe] (puzzle: Exclusion 1) | – | – | – | 26.5 | 99.3 | 86.5
16 | ACCUCACAUGAGGAUCACCCAUGUCAGGAUAUUCAAACAGGCGAAACUCCGCCUUCUCGAAGAAGGGACAUUAA [Israon] (Eterna round: R96, puzzle: Exclusion 1) | 82.1 | 14.6 | 17.7 | – | – | –
17 | ACCUCACAUGAGGAUCACCCAUGUCAGGAUAUUCAAACAGGCGAAACUCCGCCUUCUCGAAGAAGGGACAUUAA [Israon] (puzzle: Exclusion 1) | – | – | – | – | 16.2 | –
18 | ACCUCACUUGAGGAUCACCCAAGUCAGGAUAUACUCGUUUGCCACAAAACGCGGCAUUGUAGAAGGGACGGGCU [Esusso] (Eterna round: R97, puzzle: Exclusion 1) | 30 | – | 21.5 | – | – | –

Row | Sequence | apparent KD of MS2 coat protein (input ligand: FMN 200 uM) [nM] | apparent KD of MS2 coat protein [1] [nM] | apparent KD of MS2 coat protein (input ligand: none) [nM] | apparent KD of MS2 coat protein [2] [nM] | apparent KD of MS2 coat protein [3] [nM] | apparent KD of MS2 coat protein [4] [nM]
19 | ACCUCACUUGAGGAUCACCCAAGUCAGGAUAUACUCGUUUGCCGCACGACGCGGCAUUGUAGAAGGGACGGGCU [Soraedrale] (Eterna round: R97, puzzle: Exclusion 1) | 34.1 | – | 18.1 | – | – | –
20 | ACCUUAAAAGUGAGGAUAUCUAGGGCCAAAUGGCCGGAGAAGGCACAUGAGGAUCACCCAUGUAACGCCAUGGA [Beinat] (puzzle: Brourd's mod of Exclusion 4) | – | – | – | – | 13.9 | –
21 | ACCUUACAUGAGGAUCACCCAUGUCAGGAUAUCUCGGACGGCUGAAAACCAACCGUCCAGAGAAGGGACGAGGA [Solamaso] (puzzle: Exclusion 1) | – | – | – | – | 12.5 | –
22 | ACCUUACAUGAGGAUCACCCAUGUCAGGAUAUCUCGGGCGGCUGGAGACCAGCCGCCCAGAGAAGGGACGAGGA [Engeisbe] (puzzle: Exclusion 1) | – | – | – | – | 12.2 | –
23 | ACGAUUGUAGGAUAUACUUGGAGAGUGUUCACAUAUUAACGACAUGAGGAUCACCCAUGUAGAAGGGCAAUCGG [Eternabot (L1) Solution 22] (Eterna round: R97, puzzle: Exclusion 2) | 174 | – | 421 | – | – | –
24 | ACGCAUUGCCAAAGGUAGUGCGUAACAUGAGGAUCACCCAUGUAGGAUAUGGUAGGCUUUGCUUACCAGAAGGACAUAAUAAUU [Mat - Exclusion NG 3 - Mod of JL - D4] (Eterna round: R96, puzzle: Exclusion NG 3) | 43.6 | 22.7 | 27.8 | – | – | –
25 | ACGUAACGAGCUUGGUCCAACAUGAGGAUCACCCAUGUGCUCGUCUUAUAACGUACUGUCACGUUAGUGAUAGUGCG [Sensor v3, turn-off variant 1 (MOD of Eli's v1-13 v.6)] (puzzle: Sensor v3, turn-off variant 1) | – | – | – | 286 | 194 | 360
26 | ACGUAUAGAGGAUAUACAGAAUAUUACAUGAGGAUCACCCAUGUUCUUCAAUGUAUAUUUGUAGAAGGCUAAUGAA [EX-5 Malc#8] (puzzle: Exclusion 5) | – | – | – | – | 62.3 | –
27 | ACGUGGGCCCUUAGUGAACAUGAGGAUCACCCAUGUAACCACAAGGAUAUCUACGCCAGCACGCGAGAGAAGGUGUGAAAUAAU [Maorbetiza] (Eterna round: R96, puzzle: Exclusion NG 3) | 132 | 35.4 | 44.8 | – | – | –
28 | ACUCAGUGAGGAUAUCGCCAGAGAGCCGCAACAGCUCCUGAUGAGAAGGCACAUGAGGAUCACCCAUGUAAGCA [EX4 C.19] (Eterna round: R97, puzzle: Exclusion 4) | 321 | – | 116 | – | – | –
29 | ACUCUAUAGUAGGAUAUCAUCAAACUAUUGUGAUGAGAAGGACUAACAUGAGGAUCACCCAUGUUAACGUGAAG [Mod of Brourd 5 - Jieux - Exclusion 6] (Eterna round: R97, puzzle: Exclusion 6) | 24.3 | – | 21.1 | – | – | –
30 | ACUGCCACAGGAUAUACGAAACUCUUGGGUUCCGCCGUGUGACAUGAGGAUCACCCAUGUAGAAGGGUGGCUUA [Atbiinza] (puzzle: Exclusion 2) | – | – | – | – | 398 | –
31 | ACUGUUUGAUACCUCUUAUACAUGAGGAUCACCCAUGUUAUCGAGGAUAUGCAUUAGAGUGGUUAGCAGAAGGCGAUGUAAUUG [JR_ExcNG3_Sub032] (Eterna round: R96, puzzle: Exclusion NG 3) | 30.8 | 12.1 | 13.5 | – | – | –
32 | ACUUACUGAGGAUAUACUUAGAUUUACAUGAGGAUCACCCAUGUUCCUCUAUGUAUAUAUGUAGAAGGCAGAAGUU [Mat - Exclusion 5 - JL Mod - D49] (Eterna round: R97, puzzle: Exclusion 5) | 216 | – | 38.1 | – | – | –
33 | ACUUAUAGAGGAUAUACAGUUAAUUACAUGAGGAUCACCCAUGUUCUUCAAUGUAUAUAAGUAGAAGGCAAAGGAA [Mat - Exclusion 5 - Eli Mod - D3] (Eterna round: R97, puzzle: Exclusion 5) | 23.2 | – | 16.2 | – | – | –
34 | ACUUAUUGAGGAUAUACAGAAAAUUACAUGAGGAUCACCCAUGUUCUUCAAUGUAUAUAUGUAGAAGGCAGAAUAU [Mat - Exclusion 5 - JL Mod - D19] (Eterna round: R97, puzzle: Exclusion 5) | 31.1 | – | 16.5 | – | – | –
35 | AGAAAGGAAGGAUAUACAAGAAAGCUGGGCAACGUCUCAUAACAUGAGGAUCACCCAUGUAGAAGGUCCAGGAA [Tiusredi] (puzzle: Exclusion 2) | – | – | – | 35.7 | 21.2 | 19.3
